In one experiment the target is T1, 4H3666-AA.
T1 chain: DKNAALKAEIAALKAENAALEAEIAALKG
Description: two-hybrid library CCmax.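 Note: natural log of median RNA to DNA barcode read ratio; higher means stronger binding.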

The next experiment addresses T2, 4H3709-AA.
T2 chain: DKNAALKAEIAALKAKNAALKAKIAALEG
Description: two-hybrid library CCmax.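 Note: natural log of median RNA to DNA barcode read ratio; higher means stronger binding.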 Conditions: mean of both orientations.

A further experiment addresses T3, 4H391-AA.
T3 chain: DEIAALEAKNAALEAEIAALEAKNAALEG
Description: two-hybrid library CCmax.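 Note: natural log of median RNA to DNA barcode read ratio; higher means stronger binding.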 The conditions noted are these: mean of both orientations.

Another experiment deals with T4, 4H3920-AA.
T4 chain: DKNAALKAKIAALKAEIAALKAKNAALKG
Description: two-hybrid library CCmax.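 Note: natural log of median RNA to DNA barcode read ratio; higher means stronger binding.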 The conditions noted are these: mean of both orientations.

The next experiment has as its target T5, 4H3939-AA.
T5 chain: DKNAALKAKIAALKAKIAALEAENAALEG
Briefly: two-hybrid library CCmax.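 Note: natural log of median RNA to DNA barcode read ratio; higher means stronger binding.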 The conditions noted are these: mean of both orientations.

Another experiment has as its target T6, 4H428-AA.
T6 chain: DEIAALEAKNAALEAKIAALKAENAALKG
Briefly: two-hybrid library CCmax.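 Note: natural log of median RNA to DNA barcode read ratio; higher means stronger binding.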 Conditions: mean of both orientations.

The target in another experiment is T7, 4H478-AA.
T7 chain: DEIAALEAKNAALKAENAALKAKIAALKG
Briefly: two-hybrid library CCmax. Conditions: mean of both orientations.

The next experiment addresses T8, 4H497-AA.
T8 chain: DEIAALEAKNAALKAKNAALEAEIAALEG
Briefly: two-hybrid library CCmax. The conditions noted are these: mean of both orientations.

The target in the next experiment is T9, 4H656-AA.
T9 chain: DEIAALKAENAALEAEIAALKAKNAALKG
Briefly: two-hybrid library CCmax. The conditions noted are these: mean of both orientations.

For a further experiment, the target named is T10, 4H675-AA.
T10 chain: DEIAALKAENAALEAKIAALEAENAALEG
Description: two-hybrid library CCmax. The conditions noted are these: mean of both orientations.

The target of another experiment is T11, 4H971-AA.
T11 chain: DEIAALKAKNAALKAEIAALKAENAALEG
Description: two-hybrid library CCmax. The conditions noted are these: mean of both orientations.

The target of a further experiment is T12, 4H953-bN.
T12 chain: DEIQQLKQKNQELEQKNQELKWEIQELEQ
Description: two-hybrid library CCNG1.

For another experiment, the target named is T13, 4H967-bN.
T13 chain: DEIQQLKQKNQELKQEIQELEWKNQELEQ
Briefly: two-hybrid library CCNG1.

The target in another experiment is T14, 4H968-bN.
T14 chain: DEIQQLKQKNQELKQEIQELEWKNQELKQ
Briefly: two-hybrid library CCNG1.

The next experiment addresses T15, APC9141-AA.
T15 chain: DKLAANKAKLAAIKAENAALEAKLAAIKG
Description: two-hybrid library CCmax.

Another experiment concerns the target T16, APC9182-AA.
T16 chain: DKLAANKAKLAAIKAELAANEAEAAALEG
Briefly: two-hybrid library CCmax. The conditions noted are these: mean of both orientations.

For another experiment, the target named is T17, APC9291-AA.
T17 chain: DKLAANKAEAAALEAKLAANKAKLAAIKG
Description: two-hybrid library CCmax. Conditions: mean of both orientations.

The next experiment deals with T18, APC9806-AA.
T18 chain: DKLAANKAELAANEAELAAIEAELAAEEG
Briefly: two-hybrid library CCmax. The conditions noted are these: mean of both orientations.

The next experiment has as its target T19, 4H3969-AA.
T19 chain: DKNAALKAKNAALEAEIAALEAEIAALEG
Briefly: two-hybrid library CCmax.

The target of the next experiment is T20, 4H446-AA.
T20 chain: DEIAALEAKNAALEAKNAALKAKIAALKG
Description: two-hybrid library CCmax. The conditions noted are these: mean of both orientations.

A further experiment has as its target T21, 4H464-AA.
T21 chain: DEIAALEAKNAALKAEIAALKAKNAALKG
Description: two-hybrid library CCmax. Conditions: mean of both orientations.

Another experiment deals with T22, 4H483-AA.
T22 chain: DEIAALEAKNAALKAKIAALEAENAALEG
Description: two-hybrid library CCmax. The conditions noted are these: mean of both orientations.

A further experiment concerns the target T23, 4H63-AA.
T23 chain: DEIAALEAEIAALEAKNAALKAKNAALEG
Description: two-hybrid library CCmax. The conditions noted are these: mean of both orientations.

The target of another experiment is T24, 4H918-bA.
T24 chain: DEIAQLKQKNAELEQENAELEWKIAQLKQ
Briefly: two-hybrid library CCNG1.

Another experiment addresses T25, 4H953-bA.
T25 chain: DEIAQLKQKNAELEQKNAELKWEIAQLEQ
Briefly: two-hybrid library CCNG1.

The next experiment addresses T26, 4H967-bA.
T26 chain: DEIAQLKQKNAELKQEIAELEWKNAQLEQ
Briefly: two-hybrid library CCNG1.

For a further experiment, the target named is T27, 4H968-bA.
T27 chain: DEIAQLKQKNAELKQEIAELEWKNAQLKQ
Briefly: two-hybrid library CCNG1.

The next experiment deals with T28, 4H310-AA.
T28 chain: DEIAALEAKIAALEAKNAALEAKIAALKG
Description: two-hybrid library CCmax.

The target in a further experiment is T29, 4H3120-AA.
T29 chain: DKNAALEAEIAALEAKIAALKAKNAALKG
Description: two-hybrid library CCmax. Conditions: mean of both orientations.

The next experiment addresses T30, 4H3130-AA.
T30 chain: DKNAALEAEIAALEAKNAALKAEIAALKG
Description: two-hybrid library CCmax. Conditions: mean of both orientations.

In another experiment the target is T31, 4H3165-AA.
T31 chain: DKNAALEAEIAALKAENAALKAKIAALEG
Description: two-hybrid library CCmax. Conditions: mean of both orientations.

Another experiment concerns the target T32, 4H3381-AA.
T32 chain: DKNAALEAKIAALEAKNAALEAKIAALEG
Briefly: two-hybrid library CCmax. The conditions noted are these: mean of both orientations.

In a further experiment the target is T33, 4H3395-AA.
T33 chain: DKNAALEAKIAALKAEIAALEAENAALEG
Briefly: two-hybrid library CCmax. Conditions: mean of both orientations.

The next experiment concerns the target T34, 4H3410-AA.
T34 chain: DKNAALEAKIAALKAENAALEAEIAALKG
Description: two-hybrid library CCmax. The conditions noted are these: mean of both orientations.

A further experiment addresses T35, 4H3590-AA.
T35 chain: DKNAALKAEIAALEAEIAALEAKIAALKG
Description: two-hybrid library CCmax. Conditions: mean of both orientations.

The next experiment concerns the target T36, 4H3697-AA.
T36 chain: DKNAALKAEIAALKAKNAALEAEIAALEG
Description: two-hybrid library CCmax. Conditions: mean of both orientations.

The next experiment has as its target T37, 4H3753-AA.
T37 chain: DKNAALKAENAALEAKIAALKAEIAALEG
Description: two-hybrid library CCmax. The conditions noted are these: mean of both orientations.

The target in a further experiment is T38, 4H3865-AA.
T38 chain: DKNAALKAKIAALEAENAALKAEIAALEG
Briefly: two-hybrid library CCmax. Conditions: mean of both orientations.

The target of another experiment is T39, 4H458-AA.
T39 chain: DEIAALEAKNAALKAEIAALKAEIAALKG
Description: two-hybrid library CCmax. Conditions: mean of both orientations.

The next experiment addresses T40, 4H485-AA.
T40 chain: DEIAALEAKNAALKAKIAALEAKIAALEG
Briefly: two-hybrid library CCmax. The conditions noted are these: mean of both orientations.

In another experiment the target is T41, 4H536-AA.
T41 chain: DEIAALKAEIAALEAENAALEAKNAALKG
Description: two-hybrid library CCmax. The conditions noted are these: mean of both orientations.

In a further experiment the target is T42, 4H570-AA.
T42 chain: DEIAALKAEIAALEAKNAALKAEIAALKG
Description: two-hybrid library CCmax. Conditions: mean of both orientations.

The target of another experiment is T43, 4H629-AA.
T43 chain: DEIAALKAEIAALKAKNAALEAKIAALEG
Briefly: two-hybrid library CCmax. Conditions: mean of both orientations.

The target of a further experiment is T44, 4H710-AA.
T44 chain: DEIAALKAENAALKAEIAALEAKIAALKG
Description: two-hybrid library CCmax. The conditions noted are these: mean of both orientations.

The target of the next experiment is T45, 4H745-AA.
T45 chain: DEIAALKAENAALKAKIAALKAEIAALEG
Briefly: two-hybrid library CCmax. Conditions: mean of both orientations.

In another experiment the target is T46, 4H797-AA.
T46 chain: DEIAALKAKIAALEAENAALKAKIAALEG
Description: two-hybrid library CCmax. The conditions noted are these: mean of both orientations.

The next experiment concerns the target T47, 4H850-AA.
T47 chain: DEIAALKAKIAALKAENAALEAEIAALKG
Description: two-hybrid library CCmax. The conditions noted are these: mean of both orientations.

A further experiment has as its target T48, 4H891-AA.
T48 chain: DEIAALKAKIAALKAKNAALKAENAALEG
Briefly: two-hybrid library CCmax. Conditions: mean of both orientations.

For the next experiment, the target named is T49, 4H909-AA.
T49 chain: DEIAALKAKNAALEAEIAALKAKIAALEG
Description: two-hybrid library CCmax. Conditions: mean of both orientations.

The next experiment concerns the target T50, 4H930-AA.
T50 chain: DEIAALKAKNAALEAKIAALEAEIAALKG
Description: two-hybrid library CCmax. The conditions noted are these: mean of both orientations.

The target of another experiment is T51, 4H94-AA.
T51 chain: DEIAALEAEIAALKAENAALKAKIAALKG
Description: two-hybrid library CCmax. Conditions: mean of both orientations.

In the case of DKNAALKAEIAALKAENAALEAEIAALKG [4H3666-AA], the interaction score was 0.925 with 4H3666-AA; 1.48 with 4H3709-AA; -1.26 with 4H391-AA; -1.45 with 4H3920-AA; -1.61 with 4H3939-AA; -1.27 with 4H428-AA. The interaction score with 4H478-AA is 0.407; with 4H497-AA, -1.84; with 4H656-AA it was 0.306; with 4H675-AA, -2.19; with 4H971-AA it was 1.3.
With DEIQQLKQKNQELEQKNQELKWEIQELEQ [4H953-bN], the interaction score is -1.67 in the experiment with 4H953-bN, -1.76 with 4H967-bN and -1.24 in the experiment with 4H968-bN.
DKLAANKAKLAAIKAENAALEAKLAAIKG [APC9141-AA]: the interaction score with APC9141-AA is -2.08; with APC9182-AA, -1.82; with APC9291-AA, -1.86; in the experiment with APC9806-AA, -1.67.
Consider DKNAALKAKNAALEAEIAALEAEIAALEG [4H3969-AA], for which the interaction score with 4H3969-AA is -1.61; with 4H446-AA, 1.05; with 4H464-AA, -0.91; in the experiment with 4H483-AA, -1.99; in the experiment with 4H63-AA, -1.93.
For DEIAQLKQKNAELEQENAELEWKIAQLKQ [4H918-bA], the interaction score in the experiment with 4H918-bA is 0.453; with 4H953-bA it was 1.53; with 4H967-bA, -0.684; with 4H968-bA, -0.293.
DEIAALEAKIAALEAKNAALEAKIAALKG [4H310-AA]: the interaction score in the experiment with 4H310-AA was 1.89; with 4H3120-AA it was -1.43; with 4H3130-AA, -0.0638; in the experiment with 4H3165-AA, -1.5; in the experiment with 4H3381-AA, 0.757; with 4H3395-AA it was -1.03. Moreover, the interaction score with 4H3410-AA is -0.251; in the experiment with 4H3590-AA, -0.923; in the experiment with 4H3697-AA, 0.375; with 4H3753-AA it was -1.8; with 4H3865-AA, 1.13; in the experiment with 4H458-AA, 1.7. Also, the interaction score was -0.778 with 4H485-AA; -0.922 in the experiment with 4H536-AA; 1.97 in the experiment with 4H570-AA; -0.767 with 4H629-AA; -0.577 with 4H710-AA; -0.998 in the experiment with 4H745-AA. In addition, the interaction score was -0.563 in the experiment with 4H797-AA; 1.33 with 4H850-AA; -0.168 with 4H891-AA; -1.39 with 4H909-AA; -1.11 with 4H930-AA; -0.904 with 4H94-AA.
